Results on two molecules are retold here after article PMC6778137, “The midbody interactome reveals unexpected roles for PP1 phosphatases in cytokinesis” (Nature Communications, 2019).

Changes are numbered by the printed parent chain.

The test deals with T1, MBP::PP1β (UniProt P62140 1-327).
T1 construct: PP1β; Expressed from a derivative of plasmid pMH919 carrying MBP instead of 6His; also called MBP-tagged PP1β; source: S. cerevisiae (strain MGY960), purified on amylose resin, eluted with 20 mM maltose
T1 sequence (P62140 whole entry): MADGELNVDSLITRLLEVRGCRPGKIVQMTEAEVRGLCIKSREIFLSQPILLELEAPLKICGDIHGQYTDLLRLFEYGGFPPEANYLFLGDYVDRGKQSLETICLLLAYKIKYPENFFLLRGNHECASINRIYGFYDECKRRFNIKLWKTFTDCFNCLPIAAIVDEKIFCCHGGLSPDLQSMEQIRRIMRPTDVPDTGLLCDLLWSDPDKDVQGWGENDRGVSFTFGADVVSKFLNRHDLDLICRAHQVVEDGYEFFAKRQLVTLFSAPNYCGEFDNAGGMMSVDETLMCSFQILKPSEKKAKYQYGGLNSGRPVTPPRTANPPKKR
As to the kind of experiment: pull-down; GST pull-down: GST::MKLP1_(620–858) proteins on Glutathione Sepharose beads mixed with MBP::PP1β purified from yeast; NET-N+ buffer (50 mM Tris-HCl pH 7.4, 150 mM NaCl, 5 mM EDTA, 0.2% NP-40), 60 min at 4 °C, washes with 250 mM NaCl; western blot. The conditions noted are these: both partners purified. In general terms: Immunoblotting shows a protein as a band on a membrane.

B1: GST::MKLP1_(620–858) (wild type) (domain or fragment, UniProt Q02241-2 620-856, looked up)
chain: ETTMKWEKECERRVAAKQLEMQNKLWVKDEKLKQLKAIVTEPKTEKPERPSRERDREKVTQRSVSPSPVPLLFQPDQNAPPIRLRHRRSRSAGDRWVDHKPASNMQTETVMQPHVPHAITVSVANEKALAKCEKYMLTHQELASDGEIETKLIKGDIYKTRGGGQSVQFTDIETLKQESPNGSRKRRSSTVAPAQPDGAESEWTDVETRCSVAVEMRAGSQLGPGYQHHAQPKRKKP
notes: Cloned into pDEST15; source: E. coli, purified (Glutathione Sepharose 4B), kept on beads; not shown: GST, N-terminal, kept
B1: the binding result is on record as “binds”.

B2: GST::MKLP1_(620–858) AQA mutant (domain or fragment, UniProt Q02241-2 620-856, looked up)
chain: B1 chain with V167A, F169A
notes: Cloned into pDEST15; also called AQA MKLP1; source: E. coli, purified (Glutathione Sepharose 4B), kept on beads; not shown: GST, N-terminal, kept
On to B2, for which the binding result is on record as “binds”.
